From US20110301120A1, “USE OF A CHITOSAN POLYMER FOR HEPARIN NEUTRALIZATION” (UNIWERSYTET JAGIELLONSKI, priority 2009, published 2011)

Experiments:
[1] = Interaction of heparin with cationically-modified chitosan at pH 7.4 (Azure A method); format: binding
Description: The concentration of in solution was determined spectrophotometrically using Azure A. 0.9 ml of proper buffer was added to 0.1 ml of heparin solution, followed by addition of 1.0 ml of Azure A solution at 8.0·10^−5 M and the absorption spectrum of the obtained solution was measured. The concentration of heparin was determined on the basis of the intensity of absorption band at 630 nm, which corresponds to monomeric molecules of Azure A. The concentration of free heparin after addition of chitosan was determined by mixing at defined proportions of chitosan solutions in acetic acid. After 10 minutes of energetic shaking the mixtures obtained were centrifuged at 3000 rpm in order to separate the insoluble complex. The concentration of free heparin was determined in the supernatant.
The interaction of modified polymers with heparin in the aqueous solution at pH 7.4 was studied (FIG. 2). By measuring heparin concentration with Azure A method it was shown that cationically-modified chitosan effectively complexes free heparin in solution at pH 7.4.
The efficiency of heparin complexation by both polymers obtained was compared with the efficiency of protamine, a heparin-reversal agent commonly used in medicine (Table 1).

[2] = Dynamic light scattering: size of polymer objects and of their complexes with heparin; format: physicochemical; conditions: PBS
Description: The UV spectra were recorded using a diode-array HP 8452A spectrophotometer in quartz cuvettes with 1 cm optical path. The microscopic images were obtained using Nikon TE-2000 fluorescence microscope. The size of aggregates in suspensions was determined using a Zetasizer Nano ZS instrument from Malvern Instruments Ltd.
Using dynamic light scattering technique the size of objects formed by protamine and ChGl1 in the aqueous solution at pH 7.4 was measured (FIG. 3). The solutions of polymers were prepared in the PBS buffer. The heparin-protamine and heparin-ChGl complexes were obtained by mixing the respective solutions at the volume ratio corresponding to the minimum amount of the polycation needed to completely bind heparin in the solution.
For such mixtures the size and polydispersity of particles were measured.

[3] = if not neutralized or removed from the bloodstream; cited from earlier work
[4] = fast injection, dogs; cited from earlier work
[5] = minimum amount of polycation needed to completely bind heparin

Substance: protamine
- Mass required to bind 1 mg of heparin in PBS buffer at pH 7.4 [1]: 1.2661 mg
- size (diameter) of objects formed by the polymer ([2]; pH 7.4, without heparin): about 4 nm
- diameter of aggregates with heparin [2, 5]: ≤ 10 μm
- polydispersity of complexes with heparin [2, 5]: very polydisperse
- patients with adverse effects [3]: about 10%
- hemodynamic effect [4]: severe hypotension
